Biological target: T1, mCherry-LacR-MITF (human, UniProt O75030-9 1-419)
T1 sequence: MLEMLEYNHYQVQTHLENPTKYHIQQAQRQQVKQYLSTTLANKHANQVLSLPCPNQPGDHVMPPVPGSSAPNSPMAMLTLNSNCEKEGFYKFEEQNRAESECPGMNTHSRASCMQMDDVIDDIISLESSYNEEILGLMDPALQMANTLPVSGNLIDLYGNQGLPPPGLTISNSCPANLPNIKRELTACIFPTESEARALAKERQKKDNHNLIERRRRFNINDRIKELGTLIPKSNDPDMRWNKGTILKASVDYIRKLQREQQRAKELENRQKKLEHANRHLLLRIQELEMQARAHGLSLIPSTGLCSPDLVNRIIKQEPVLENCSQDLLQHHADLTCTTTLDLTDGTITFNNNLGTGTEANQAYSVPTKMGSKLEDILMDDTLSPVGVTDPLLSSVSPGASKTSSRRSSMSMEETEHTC
Test: LacR/LacO nuclear tethering assay

B1: NBS1-GFP (natural protein)
chain: MWKLLPAAGPAGGEPYRLLTGVEYVVGRKNCAILIENDQSISRNHAVLTANFSVTNLSQTDEIPVLTLKDNSKYGTFVNEEKMQNGFSRTLKSGDGITFGVFGSKFRIEYEPLVACSSCLDVSGKTALNQAILQLGGFTVNNWTEECTHLVMVSVKVTIKTICALICGRPIVKPEYFTEFLKAVESKKQPPQIESFYPPLDEPSIGSKNVDLSGRQERKQIFKGKTFIFLNAKQHKKLSSAVVFGGGEARLITEENEEEHNFFLAPGTCVVDTGITNSQTLIPDCQKKWIQSIMDMLQRQGLRPIPEAEIGLAVIFMTTKNYCDPQGHPSTGLKTTTPGPSLSQGVSVDEKLMPSAPVNTTTYVADTESEQADTWDLSERPKEIKVSKMEQKFRMLSQDAPTVKESCKTSSNNNSMVSNTLAKMRIPNYQLSPTKLPSINKSKDRASQQQQTNSIRNYFQPSTKKRERDEENQEMSSCKSARIETSCSLLEQTQPATPSLWKNKEQHLSENEPVDTNSDNNLFTDTDLKSIVKNSASKSHAAEKLRSNKKREMDDVAIEDEVLEQLFKDTKPELEIDVKVQKQEEDVNVRKRPRMDIETNDTFSDEAVPESSKISQENEIGKKRELKEDSLWSAKEISNNDKLQDDSEMLPKKLLLTEFRSLVIKNSTSRNPSGINDDYGQLKNFKKFKKVTYPGAGKLPHIIGGSDLIAHHARKNTELEEWLRQEMEVQNQHAKEESLADDLFRYNPYLKRRR
- median enrichment of GFP at the mCherry dot over the rest of the nucleus: 7 fold
